Assay results from patent US20260351346 (published 2026).
Positions count from the first letter of the chain named.

Biological target: TNFRSF9 (CD137) (human)
Assay: ELISA

TNFRSF9 (CD137) (human), sequence (chain, as listed by the source): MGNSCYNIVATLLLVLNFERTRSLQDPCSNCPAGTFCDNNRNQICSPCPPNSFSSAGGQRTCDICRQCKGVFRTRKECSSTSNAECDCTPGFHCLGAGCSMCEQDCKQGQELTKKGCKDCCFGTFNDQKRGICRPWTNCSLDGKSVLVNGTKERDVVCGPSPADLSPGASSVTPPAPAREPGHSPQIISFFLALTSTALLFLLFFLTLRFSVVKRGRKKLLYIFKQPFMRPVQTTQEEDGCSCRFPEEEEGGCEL

B1: 4C2-WTH (antibody, V domains shown)
VH: QSVEESGGRLVTPGTPLTLTCTVSGFSLGTFPIGWVRQAPGSGLEWIGIFNTDGSAAYASWARGRFTVFKNSTTVDLKMTSPTTEDTATYFCARINADYSGWYFGIWGPGTLVTVSS
VL: EMTQTPASVEVAVGGTVTIKCQASQSIYSYLAWYQQKPGQPPKPLIYEASKTPSGVPSRFKGSGSGTEYTLTISGVQCEDAATYYCQKGYSVSNVAFGGGTEVVVK
EC50: 3.8 ng/mL

B2: 4C2-Candi4 (antibody, V domains shown)
VH: EVQLEESGGGVVQPGGSLKLSCTVSGFSLGTFPIGWVRQAPGKGLEWVGIFNTDGSAAYAASVKGRFTVSKNSTKNTVYLHMNSLKTEDTAVYFCARINADYSGWYFGIWGQGTLVTVSS
VL: DIQMTQSPSSLSVSVGGRVTITCQASQSIYSYLAWYQQKPGKAPKLLIYEASKTPSGVPSRFNGNGSGTEYTLTISSLQPEDSATYYCQKGYSVSNVAFGGGTEVEIK
EC50: 2.46 ng/mL

B3: 4C2-Candi3 (antibody, V domains shown)
VH: B2 VH with V11L, K19A, K71R, N72D, T74S
VL: B2 VL with V13A, E70D, Y71F
EC50: 100 ng/mL

B4: 4C2-Candi2 (antibody, V domains shown)
VH: B2 VH with V11L, G16M, K19R, T68N
VL: B2 VL with D1A, I2Q
EC50: 2.38 ng/mL
